Data reported in US20050004025A1.

Target: recombinant human a7 nicotinic acetylcholine receptor expressed in Xenopus oocytes (human) (UniProt P36544)
Test: cell-based or functional assay

recombinant human a7 nicotinic acetylcholine receptor expressed in Xenopus oocytes (human), sequence (P36544 23-502): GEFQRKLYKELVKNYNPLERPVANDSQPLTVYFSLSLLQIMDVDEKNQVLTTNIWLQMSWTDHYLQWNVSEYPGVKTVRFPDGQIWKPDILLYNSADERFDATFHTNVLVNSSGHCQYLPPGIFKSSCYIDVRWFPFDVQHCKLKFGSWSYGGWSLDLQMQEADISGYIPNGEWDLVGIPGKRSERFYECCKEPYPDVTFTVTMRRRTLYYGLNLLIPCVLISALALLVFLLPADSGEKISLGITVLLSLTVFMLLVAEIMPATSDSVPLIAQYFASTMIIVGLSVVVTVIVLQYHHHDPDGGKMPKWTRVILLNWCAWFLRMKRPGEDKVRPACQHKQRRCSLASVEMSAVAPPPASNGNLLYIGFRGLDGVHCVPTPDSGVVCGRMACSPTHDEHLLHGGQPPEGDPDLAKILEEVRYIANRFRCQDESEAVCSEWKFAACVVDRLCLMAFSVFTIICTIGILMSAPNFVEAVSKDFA

EC50 of acetylcholine on the receptor after 2.5 min exposure to 200 pM SLURP-1 (FIG. 5C; control 178 µM; n=6 for each data point): 68 µM
EC50 of acetylcholine on the receptor after SLURP-1 treatment (FIG. 5B; control 175 µM): 68 µM
increase of the amplitude of acetylcholine-evoked macroscopic currents at 200 pM SLURP-1, compared with control (two-electrode voltage clamp, oocytes; n=6): 421%
increase of the amplitude of acetylcholine-evoked macroscopic currents at 20 nM SLURP-1, compared with control (two-electrode voltage clamp, oocytes; n=4): 1210%
Substance: recombinant SLURP-1 with C-terminal myc tag and His6 tag (highly purified SLURP-1) (from UniProt P55000 23-103) (ligand)
